Experiments:
[1] = molecular target: HIV-1 Env of pseudovirus X1254_c3 (clade G) (HIV-1); experiment: cell-based or functional assay
[2] = molecular target: HIV-1 Env of pseudovirus Ce1172_H1 (clade C, T/F) (HIV-1); experiment: cell-based or functional assay
[3] = molecular target: HIV-1 Env of pseudovirus CNE20 (clade BC) (HIV-1); experiment: cell-based or functional assay
[4] = molecular target: HIV-1 Env of pseudovirus 191955_A11 (clade A, T/F) (HIV-1); experiment: cell-based or functional assay
[5] = molecular target: HIV-1 Env of pseudovirus PVO.4 (clade B) (HIV-1); experiment: cell-based or functional assay
[6] = molecular target: HIV-1 Env of pseudovirus Q259.d2.17 (clade A) (HIV-1); experiment: cell-based or functional assay
[7] = molecular target: HIV-1 Env of pseudovirus 6952.v1.c20 (clade CD) (HIV-1); experiment: cell-based or functional assay
[8] = molecular target: HIV-1 Env of pseudovirus X2088_c9 (clade G) (HIV-1); experiment: cell-based or functional assay
[9] = molecular target: HIV-1 Env of pseudovirus 3103.v3.c10 (clade ACD) (HIV-1); experiment: cell-based or functional assay
[10] = molecular target: HIV-1 Env of pseudovirus R1166.c01 (clade CRF01_AE) (HIV-1); experiment: cell-based or functional assay
[11] = molecular target: HIV-1 Env of pseudovirus CAP210.2.00.E8 (clade C) (HIV-1); experiment: cell-based or functional assay
[12] = molecular target: HIV-1 Env of pseudovirus Ce1086_B2 (clade C, T/F) (HIV-1); experiment: cell-based or functional assay
[13] = molecular target: HIV-1 Env of pseudovirus T250-4 (clade CRF02_AG) (HIV-1); experiment: cell-based or functional assay
[14] = molecular target: HIV-1 Env of pseudovirus Du422.1 (clade C) (HIV-1); experiment: cell-based or functional assay
[15] = molecular target: HIV-1 Env of pseudovirus AC10.0.29 (clade B) (HIV-1); experiment: cell-based or functional assay
[16] = molecular target: HIV-1 Env of pseudovirus 620345.c01 (clade CRF01_AE) (HIV-1); experiment: cell-based or functional assay
[17] = molecular target: HIV-1 Env of pseudovirus 3016.v5.c45 (clade D) (HIV-1); experiment: cell-based or functional assay
[18] = molecular target: HIV-1 Env of pseudovirus BJOX028000.10.3 (clade CRF01_AE, T/F) (HIV-1); experiment: cell-based or functional assay
[19] = molecular target: HIV-1 Env of pseudovirus Du172.17 (clade C) (HIV-1); experiment: cell-based or functional assay
[20] = molecular target: HIV-1 Env of pseudovirus 6545.v4.c1 (HIV-1); experiment: cell-based or functional assay
[21] = molecular target: HIV-1 Env of pseudovirus 62357_14_D3_4589 (clade B, T/F) (HIV-1); experiment: cell-based or functional assay
[22] = molecular target: MuLV Env pseudovirus (negative control) (MuLV); experiment: cell-based or functional assay
[23] = molecular target: monomeric HIV-1 Ba-L gp120 (HIV-1 Ba-L); experiment: retention on gp120 affinity column
[24] = molecular target: HIV-1 93TH057 gp120 coree (HIV-1); experiment: PDB 3ngb structure, PISA interface

N49P7YTE (antibody)
IC50, titer in TZM.bl cells [1]: 26.2 µg/mL
IC80, titer in TZM.bl cells [1]: > 50 µg/mL
MPI [1]: 59
IC50, titer in TZM.bl cells [2]: > 50 µg/mL
IC80, titer in TZM.bl cells [2]: > 50 µg/mL
MPI [2]: 12
IC50, titer in TZM.bl cells [3]: 0.11 µg/mL
IC80, titer in TZM.bl cells [3]: 0.317 µg/mL
MPI [3]: 99
IC50, titer in TZM.bl cells [4]: 39 µg/mL
IC80, titer in TZM.bl cells [4]: > 50 µg/mL
MPI [4]: 56
IC50, titer in TZM.bl cells [5]: 0.088 µg/mL
IC80, titer in TZM.bl cells [5]: 0.394 µg/mL
MPI [5]: 100
IC50, titer in TZM.bl cells [6]: 5.34 µg/mL
IC80, titer in TZM.bl cells [6]: 44.1 µg/mL
MPI [6]: 82
IC50, titer in TZM.bl cells [7]: > 50 µg/mL
IC80, titer in TZM.bl cells [7]: > 50 µg/mL
MPI [7]: 13
IC50, titer in TZM.bl cells [8]: 0.329 µg/mL
IC80, titer in TZM.bl cells [8]: 1.06 µg/mL
MPI [8]: 100
IC50, titer in TZM.bl cells [9]: 0.322 µg/mL
IC80, titer in TZM.bl cells [9]: 0.583 µg/mL
MPI [9]: 100
IC50, titer in TZM.bl cells [10]: 0.232 µg/mL
IC80, titer in TZM.bl cells [10]: 0.782 µg/mL
MPI [10]: 100
IC50, titer in TZM.bl cells [11]: 3.11 µg/mL
IC80, titer in TZM.bl cells [11]: 13.9 µg/mL
MPI [11]: 99
IC50, titer in TZM.bl cells [12]: 0.113 µg/mL
IC80, titer in TZM.bl cells [12]: 0.53 µg/mL
MPI [12]: 99
IC50, titer in TZM.bl cells [13]: > 50 µg/mL
IC80, titer in TZM.bl cells [13]: > 50 µg/mL
MPI [13]: 43
IC50, titer in TZM.bl cells [14]: 13.2 µg/mL
IC80, titer in TZM.bl cells [14]: > 50 µg/mL
MPI [14]: 76
IC50, titer in TZM.bl cells [15]: > 50 µg/mL
IC80, titer in TZM.bl cells [15]: > 50 µg/mL
MPI [15]: 28
IC50, titer in TZM.bl cells [16]: > 50 µg/mL
IC80, titer in TZM.bl cells [16]: > 50 µg/mL
MPI [16]: 0
IC50, titer in TZM.bl cells [17]: 1.15 µg/mL
IC80, titer in TZM.bl cells [17]: 9.65 µg/mL
MPI [17]: 89
IC50, titer in TZM.bl cells [18]: 0.018 µg/mL
IC80, titer in TZM.bl cells [18]: 0.155 µg/mL
MPI [18]: 100
IC50, titer in TZM.bl cells [19]: 0.283 µg/mL
IC80, titer in TZM.bl cells [19]: 0.953 µg/mL
MPI [19]: 100
IC50, titer in TZM.bl cells [20]: > 50 µg/mL
IC80, titer in TZM.bl cells [20]: > 50 µg/mL
MPI [20]: 45
IC50, titer in TZM.bl cells [21]: 0.039 µg/mL
IC80, titer in TZM.bl cells [21]: 0.173 µg/mL
MPI [21]: 100
IC50, titer in TZM.bl cells [22]: > 50 µg/mL
IC80, titer in TZM.bl cells [22]: > 50 µg/mL
MPI [22]: 4

Synagis (antibody)
recovery from gp120 affinity column [23]: < 1%

VRC01 Fab
Ratio of OD/ID buried surface area [24]: 9.68
buried surface area, CDR H1 [24]: 3 Å^2
buried surface area, CDR H2 [24]: 598 Å^2
buried surface area, CDR L1 [24]: 50 Å^2
buried surface area, CDR L2 [24]: 0 Å^2
buried surface area, CDR L3 [24]: 132 Å^2
buried surface area, CDRH3 [24]: 160 Å^2
buried surface area, Fab heavy and light chain total [24]: 1200 Å^2
buried surface area, Fab heavy chain total [24]: 897 Å^2
buried surface area, Fab light chain total [24]: 306 Å^2
buried surface area, gp120 CD4 binding loop of OD [24]: 188 Å^2
buried surface area, gp120 Loop D of OD [24]: 322 Å^2
buried surface area, gp120 Loop V5 of OD [24]: 301 Å^2
buried surface area, gp120 inner domain (ID) [24]: 107 Å^2
buried surface area, gp120 outer domain (OD) [24]: 1040 Å^2
buried surface area, gp120 total [24]: 1140 Å^2
buried surface area, heavy chain FWR [24]: 136 Å^2
buried surface area, light chain FWR [24]: 124 Å^2

Reference: patent US20230002480A1
